For the assay, the target named is human Factor IXa (human, UniProt P00740 47-191; P00740 227-461). As to the kind of experiment: cell-based or functional assay.

Square brackets hold non-standard residues; d marks the D form. Ends that are not written are not given here. NMeY = CN[C@@H](Cc1ccc(O)cc1)C(=O)O; NMeL = CN[C@@H](CC(C)C)C(=O)O

As to RRAPGKLTCLASYCWLFLTGWARVPLPPRPHP [RRAPGKLTCLASYCWLF LTGWA RVPLPPRPHP], the “EC50 [µM], FXa generation assay” value was more than 1 µM.

B1: SKQGAPISPDrRAAGKLTCLASYCWLFWTGIA (peptide)
peptide: SKQGAPISPD[dR]RAAGKLTCLASYCWLFWTGIA
modifications: not fully specified; printed as SKQGAPISPDrRAAGKLTCLASYCWLFWTGIA; cysteine pairing not given here
Turning to B1, the “EC50 [µM], FXa generation assay” value is less than 0.5 µM.

B2: SKQGRPISSDrRAAGKLTCLASYCWLFWTGIA (peptide)
peptide: SKQGRPISSD[dR]RAAGKLTCLASYCWLFWTGIA
modifications: not fully specified; printed as SKQGRPISSDrRAAGKLTCLASYCWLFWTGIA; cysteine pairing not given here
In the case of B2, the “EC50 [µM], FXa generation assay” value was less than 0.5 µM.

In the case of GRAMAAEPWPRQAPGKLTCLASYCWLFWTGIA [GRAMAAEPWP RQAPG KLTCLASYCWLFWTGIA], the “EC50 [µM], FXa generation assay” value is less than 0.5 µM.

B3: SKQGRPISSDrRAAGKSTCLASYCWLFWTGIA (peptide)
peptide: SKQGRPISSD[dR]RAAGKSTCLASYCWLFWTGIA
modifications: not fully specified; printed as SKQGRPISSDrRAAGKSTCLASYCWLFWTGIA; cysteine pairing not given here
Take B3: the “EC50 [µM], FXa generation assay” value is less than 0.5 µM.

B4: SKQGRPISPDrRAAGKLTCLASYCWLFWT (peptide)
peptide: SKQGRPISPD[dR]RAAGKLTCLASYCWLFWT
modifications: not fully specified; printed as SKQGRPISPDrRAAGKLTCLASYCWLFWT; cysteine pairing not given here
As to B4, the “EC50 [µM], FXa generation assay” value was less than 0.5 µM.

B5: SKQGRPISADrRAAGKLTCLASYCWLFWTGIA (peptide)
peptide: SKQGRPISAD[dR]RAAGKLTCLASYCWLFWTGIA
modifications: not fully specified; printed as SKQGRPISADrRAAGKLTCLASYCWLFWTGIA; cysteine pairing not given here
Turning to B5, the “EC50 [µM], FXa generation assay” value is less than 0.5 µM.

B6: SKQARPISPDrRAAGKLTCLASYCWLFWTGIA (peptide)
peptide: SKQARPISPD[dR]RAAGKLTCLASYCWLFWTGIA
modifications: not fully specified; printed as SKQARPISPDrRAAGKLTCLASYCWLFWTGIA; cysteine pairing not given here
As for B6, the “EC50 [µM], FXa generation assay” value is more than 1 µM.

For the molecule RRAPGKLTCLASYCWLFWTAVGGQPYMLLAWR [RRAPGKLTCLASYCWLF WTAVG GQPYMLLAWR], the “EC50 [µM], FXa generation assay” value was less than 0.5 µM.

B7: SKQGRPIAPDrRAAGKLTCLASYCWLFWTGIA (peptide)
peptide: SKQGRPIAPD[dR]RAAGKLTCLASYCWLFWTGIA
modifications: not fully specified; printed as SKQGRPIAPDrRAAGKLTCLASYCWLFWTGIA; cysteine pairing not given here
For B7, the “EC50 [µM], FXa generation assay” value was less than 0.5 µM.

B8: SKQGRPISPDrRAAGKLTCLASYCWLFW (peptide)
peptide: SKQGRPISPD[dR]RAAGKLTCLASYCWLFW
modifications: not fully specified; printed as SKQGRPISPDrRAAGKLTCLASYCWLFW; cysteine pairing not given here
As for B8, the “EC50 [µM], FXa generation assay” value was less than 0.5 µM.

With PNLLRVRTSEVRNPGKLTCLASYCWLFWTGIA [PNLLRVRTSE VRNPG KLTCLASYCWLFWTGIA], the “EC50 [µM], FXa generation assay” value was less than 0.5 µM.

For TALSRGLVTMRTAPDKLTCLASYCWLFWTGIA [TALSRGLVTM RTAPD KLTCLASYCWLFWTGIA], the “EC50 [µM], FXa generation assay” value is less than 0.5 µM.

As for RRAPGKLTCLASYCWLFYTGIAHGHPMEHRKS [RRAPGKLTCLASYCWLF YTGIA HGHPMEHRKS], the “EC50 [µM], FXa generation assay” value was more than 1 µM.

Regarding SKQGRPISPD[dR]RAAGKLTCLASYCW[NMeL]FWTGIA (not fully specified; cysteine pairing not given here) [SKQGRPISPDrRAAGKLTCLASYCW-NMeLeu-FWTGIA], the “EC50 [µM], FXa generation assay” value is more than 10 µM.

B9: SKQGRPISPDrRAAGKLTCLaSYCWLFWTGIA (peptide)
peptide: SKQGRPISPD[dR]RAAGKLTCL[dA]SYCWLFWTGIA
modifications: not fully specified; printed as SKQGRPISPDrRAAGKLTCLaSYCWLFWTGIA; cysteine pairing not given here
Consider B9, for which the “EC50 [µM], FXa generation assay” value is more than 10 µM.

B10: SKQGRPISPDrRAAGKLTCLASYCWLFWTG (peptide)
peptide: SKQGRPISPD[dR]RAAGKLTCLASYCWLFWTG
modifications: not fully specified; printed as SKQGRPISPDrRAAGKLTCLASYCWLFWTG; cysteine pairing not given here
As to B10, the “EC50 [µM], FXa generation assay” value is less than 0.5 µM.

On to RRAPGKLTCLASYCWLFWAGIAPHRPLKERVR [RRAPGKLTCLASYCWLF WAGIA PHRPLKERVR], for which the “EC50 [µM], FXa generation assay” value is more than 1 µM.

Regarding RRAPGKLTCLASYCWLFWTTYASYATKPADTT [RRAPGKLTCLASYCWLF WTTYA SYATKPADTT], the “EC50 [µM], FXa generation assay” value was less than 0.5 µM.

B11: SKAGRPISPDrRAAGKLTCLASYCWLFWTGIA (peptide)
peptide: SKAGRPISPD[dR]RAAGKLTCLASYCWLFWTGIA
modifications: not fully specified; printed as SKAGRPISPDrRAAGKLTCLASYCWLFWTGIA; cysteine pairing not given here
With B11, the “EC50 [µM], FXa generation assay” value is less than 0.5 µM.

Consider RRAPGKLTCLASYCWLFATGVTFPQIWAIPSP [RRAPGKLTCLASYCWLF ATGVT FPQIWAIPSP], for which the “EC50 [µM], FXa generation assay” value is more than 1 µM.

B12: SKQGRAISPDrRAAGKLTCLASYCWLFWTGIA (peptide)
peptide: SKQGRAISPD[dR]RAAGKLTCLASYCWLFWTGIA
modifications: not fully specified; printed as SKQGRAISPDrRAAGKLTCLASYCWLFWTGIA; cysteine pairing not given here
As for B12, the “EC50 [µM], FXa generation assay” value is more than 1 µM.

With PQTRDPSSRDRRAPGKLTCLASYCWLFWTGIA [PQTRDPSSRD RRAPG KLTCLASYCWLFWTGIA], the “EC50 [µM], FXa generation assay” value was less than 0.5 µM.

In the case of PRTTANRRSSRRAPAKLTCLASYCWLFWTGIA [PRTTANRRSS RRAPA KLTCLASYCWLFWTGIA], the “EC50 [µM], FXa generation assay” value was less than 0.5 µM.

PARGKERELMRRAPGKLTCLASYCWLFWTGIA [PARGKERELM RRAPG KLTCLASYCWLFWTGIA]: the “EC50 [µM], FXa generation assay” value was more than 1 µM.

B13: SAQGRPISPDrRAAGKLTCLASYCWLFWTGIA (peptide)
peptide: SAQGRPISPD[dR]RAAGKLTCLASYCWLFWTGIA
modifications: not fully specified; printed as SAQGRPISPDrRAAGKLTCLASYCWLFWTGIA; cysteine pairing not given here
B13: the “EC50 [µM], FXa generation assay” value was less than 0.5 µM.

Consider LYTAWIKCQFARLPGCALSGRW-NH2 (cysteine pairing not given here) [compound C], for which the “EC50 [µM], FXa generation assay with hFIXa” value is more than 25 µM.

RRAPGKLTCLASYCWLFVTGTAHAPRVAPAPA [RRAPGKLTCLASYCWLF VTGTA HAPRVAPAPA]: the “EC50 [µM], FXa generation assay” value is more than 1 µM.

Consider SLISMTNPSGRRVPGKLTCLASYCWLFWTGIA [SLISMTNPSG RRVPG KLTCLASYCWLFWTGIA], for which the “EC50 [µM], FXa generation assay” value was less than 0.5 µM.

As to RRAPGKLTCLASYCWLFWAVIAPPKVKGTRQS [RRAPGKLTCLASYCWLF WAVIA PPKVKGTRQS], the “EC50 [µM], FXa generation assay” value was more than 1 µM.

B14: SKQGRPISSDrRASGKLTCLASYCWLFWTGIA (peptide)
peptide: SKQGRPISSD[dR]RASGKLTCLASYCWLFWTGIA
modifications: not fully specified; printed as SKQGRPISSDrRASGKLTCLASYCWLFWTGIA; cysteine pairing not given here
As to B14, the “EC50 [µM], FXa generation assay” value was less than 0.5 µM.

On to SKQGRPISPD[dR]RAAGKLTCLAS[NMeY]CWLFWTGIA (not fully specified; cysteine pairing not given here) [SKQGRPISPDrRAAGKLTCLAS-NMeTyr-CWLFWTGIA], for which the “EC50 [µM], FXa generation assay” value was more than 10 µM.

B15: SKQGRPISPArRAAGKLTCLASYCWLFWTGIA (peptide)
peptide: SKQGRPISPA[dR]RAAGKLTCLASYCWLFWTGIA
modifications: not fully specified; printed as SKQGRPISPArRAAGKLTCLASYCWLFWTGIA; cysteine pairing not given here
With B15, the “EC50 [µM], FXa generation assay” value was less than 0.5 µM.

Turning to NGALGFRSVVPRAAGKLTCLASYCWLFWTGIA [NGALGFRSVV PRAAG KLTCLASYCWLFWTGIA], the “EC50 [µM], FXa generation assay” value was less than 0.5 µM.

B16: SKQGRPISSDrRASGKSTCLASYCWLFWTGIA (peptide)
peptide: SKQGRPISSD[dR]RASGKSTCLASYCWLFWTGIA
modifications: not fully specified; printed as SKQGRPISSDrRASGKSTCLASYCWLFWTGIA; cysteine pairing not given here
For B16, the “EC50 [µM], FXa generation assay” value was less than 0.5 µM.

For RRAPGKLTCLASYCWLFWTGIARWPSHRSGPS (not fully specified (C-terminus); cysteine pairing not given here) [RRAPGKLTCLASYCWLF WTGIA RWPSHRSGPS], the “EC50 [µM], FXa generation assay” value was more than 1 µM.

As to AQWVGRGQWAIRAPGKLTCLASYCWLFWTGIA [AQWVGRGQWA IRAPG KLTCLASYCWLFWTGIA], the “EC50 [µM], FXa generation assay” value was more than 1 µM.

B17: AKQGRPISPDrRAAGKLTCLASYCWLFWTGIA (peptide)
peptide: AKQGRPISPD[dR]RAAGKLTCLASYCWLFWTGIA
modifications: not fully specified; printed as AKQGRPISPDrRAAGKLTCLASYCWLFWTGIA; cysteine pairing not given here
Take B17: the “EC50 [µM], FXa generation assay” value is less than 0.5 µM.

As to RPRSSAHDRPRRAAGKLTCLASYCWLFWTGIA [RPRSSAHDRP RRAAG KLTCLASYCWLFWTGIA], the “EC50 [µM], FXa generation assay” value was more than 1 µM.
